Assay results taken from patent US20240287489A1, “CHITINOLYTIC ENZYME-BASED PLANT PROTECTION AGENTS” (GLOBACHEM NV, priority 2021, published 2024).

Legend:
[1] = Chitinase mixture design, conversion rate of chitin powder (reducing end assay); assay type: biochemical; details: 2 μM Factor A
Procedure: All five chitinases implemented in the DoE originated from a novel marine Photobacterium strain expressing these enzymes to carry out a conversion of crystalline chitin to monomeric and dimeric polysaccharides. All chitinases were produced recombinantly using E. coli BL21 (DE3) and characterized regarding optimum reaction conditions and product properties in Example 2. As so far only singular enzyme reactions were carried out, the DoE approach was used to 1) determine ideal enzyme combinations to maximize product rates 2) identify possible enzyme combinations to alter product distribution in terms of DP. […] The amount of released reducing sugars from the enzymatic degradation was quantified by the reducing end assay and used as a primary response.
The optimization function in Design Expert was used to model enzyme mixtures to maximize the overall conversion rate of chitin to oligomeric chitin mixtures. Three mixture solutions for maximized chitin (S1-83 Max) oligomer rates were tested and quantitative data was compared to the values predicted by the model. […]
Enzymatic activity of recombinant chitinases was determined by carrying out a reducing end assay [J., H., Svein, E., and H., V. G., Carbohydr Polym, 2004. […] Samples were cooled down to room temperature and absorption was determined at 620 nm. […]

[2] = test system: corn (maize), rice, barley; assay: Protection of plants against abiotic stress (drought, flooding, salt, frost); assay type: in vivo, pear, cherry; details: foliar and/or seed application
Excerpt: FIGS. 18A-18E. Use of chitinase 1 as plant protection agent against abiotic stresses. Plant length (PL) FIG. 18A: after foliar application on corn in presence of drought or flooding stress; FIG. 18B: after foliar, seed or foliar+seed application on corn in presence of drought stress; FIG. 18C: after foliar application on rice in presence of salt stress; FIG. 18D: after foliar application on corn in presence of salt stress; FIG. 18E: after seed application on barley in presence of drought stress.
FIGS. 19A-19B. Use of chitinase 1 as plant protection agent against abiotic stresses. Yield FIG. 19A: of pears after foliar application in presence of frost stress; FIG. 19B: of cherries after foliar application in presence of frost stress.
Chitinase 1 was tested for protective effects against abiotic stress. Abiotic stresses tested were drought, flooding, salt, or frost stress. Plants tested were: corn (maize), rice, barley, pear and […]. Test conditions were as follows:
• plants are drilled in trays • germination at 25° C./15° C. (day/night) light 16 h, dark 8 h • application 10 days later • 2 days later replanted in pots of 8×8 cm • 3 possible regimes • no water • every day water with flooding system • continuous water
• plants are drilled in trays • germination at 25° C./15° C. […]

[3] = Substrate conversion yield from residue substrate after the reaction; assay type: biochemical; details: residue substrate after the reaction relative to the starting material
Procedure: The overall substrate conversion yield was determined for all maximized solutions after determining the residue substrate after the reaction, relative to the starting material.

[4] = test system: D. melanogaster eggs; assay: Larvae survival after treatment of D. melanogaster eggs; assay type: in vivo; details: chitinase concentrations from 10% to 0.1%
Procedure: The effects of chitinases on insects was tested on D. melanogaster eggs. Briefly, eggs were treated with chitinase 1 or a control, and larvae survival was assessed 3 days after treatment (DAT). Results for chitinase concentrations of concentration from 10% to 0.1% were as follows: […]

[5] = test system: Fusarium culmorum; assay type: in vivo; details: wheat, foliar application 3 dps, F. culmorum added 4 dps
[6] = test system: Fusarium culmorum; assay: Minimum inhibitory concentration (MIC) test on fungal pathogens; assay type: cell-based
Procedure: The start concentration of each chitinase used in minimum inhibitory concentration (MIC) tests was 100 μg/ml.
The chitinases were further tested for their protective activity in germination tests. Briefly, the following steps were conducted: • 1. Disinfection of wheat seeds in 10% bleach for 10 minutes in a biosafety cabinet • 2. Germination on filter paper • 3. Foliar application 3 dps (days post seeding) and 1 dbi (day before infection) • 4. 4 dps: add pathogen Fusarium culmorum • 5. Monitoring germination and plant health/phytotox

B1: Chitinase 1: chitinolytic enzyme from P. orarium, SEQ ID NO: 1, recombinant with PelB signal peptide and 6×His tag; run 19 = 2 μM alone (protein, listed as Photobacterium orarium)
chain: MAAPGTPQIAWMETDYAIVEVDQAASAYKSLITVKPAAEVPVAWQRYSGETADLWKVKLNGNVVFEQSIAPASSGAGSTTLSVAQGGQYAMTVELCSGTGAAQACTSSAATNIVVADTDGSHLDPLPMNVDANNGNYTTPANTVVGAYFVEWGVYGRKFSVDNIPAQNLTHILYGFIPICGPNESLGEIENGNSLAALNRACQGTPDYEVVIHDPWAAVQMPQPQSGHTHSTPYKGTYGQMMALKQRYPDLKIVPSVGGWTLSDPFYSFTDKAKRDIFVASVKKFLKTWKFFDGVDIDWEFPGGKGANANLGDPVNDGPAYVALMRELRVMLDELEAETGRQYELTSAIGVGYDKIDVVNYADAVQYMDYIFAMTYDFFGGWNNVPGHQTALFCGSHMSADVCNGTGVDENGVPRQGPAYTAAHGIDRLLAQGVPANKLVLGTAMYARGWTGVTEASMTDPTNPMTGTGNGMVPGSWEPGVIDYKDVVTDYINNAAVTKGYDAQAEAPWAYNPSNGNLITYDDRRSVLAKGQYVRNLGLAGLFAWEIDADNGDILNAMQDSLAGGGGNYAPVAKAGADQVVNGAASVTLDGSASSDRDGQIVSYQWTQTSGPALTLTGSDTATATVAVPEVTADTQYAFTLTVTDNAGDTATDSVTVTAKAPGSNTAPVVAVSGPATASAGDTVVLDASQSSDADGDTLTFTWTVPAGVNATVNGATVSFVADSYTVDTPLNFTVAVSDGTDSVTESVTVTVLKDGGSTGCTNAWATGGVYNSGDIVTHSGKSWKAKWWTTGEEPGTTGEWGVWEDLGAANCQIE
modifications: PelB signal peptide; 6xHis tag; Chitinase 1
notes: run 19 = 2 μM alone
For B1, the “conversion rate (highest of the design runs)” value [1] was 502 nmol/mL/h, the “protection from abiotic stress (plant length, fruit yield)” value [2] was “protects the plants from different abiotic stresses” and the substrate conversion yield [3] was 18.3±0.5%. For the same molecule, the “% mortality” value ([4]; 3 days after treatment, control 25) was 36%, the “% survival” value ([4]; larvae survival 3 days after treatment, control 75) was 64% and the “fungal growth in germination test” value [5] was “strong inhibition of fungal growth”. For the same molecule, the “plant health in germination test” value ([5]; compared to the control) was “improved plant health” and the “inhibition of Fusarium culmorum in the MIC assay” value [6] was “showed inhibition”.
